From patent US8147817B2, “IL-33 in the treatment and diagnosis of diseases and disorders” (The Brigham and Women's Hospital, Inc., priority 2006, dated 2012)
Entries after “also recorded” stand apart in the source; their conditions may differ. Like-named read-outs stand apart in the source and are kept apart here.

Columns and labels:
[1] = system: WT and ST2−/− mice after TAC; details: for induction of ANP and BNP gene expression after TAC: left ventricle 1 week after operation;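 on all read-outs here: ST2−/− mice and WT littermates, 8-10 weeks old at the time of TAC surgery where applicable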
Experimental: Targeted ST2 ablated mice and their wild-type littermates were employed for the experiment simultaneously. TAC was produced as described previously (11-13) on 8-10 week old mice. Some mice underwent daily intraperitoneal (i.p.) injection of IL-33 (2 μg suspended in 100 microliters of PBS with 0.2% bovine serum albumin) or vehicle beginning from the day after TAC operation to the day of harvest.
Formalin-fixed, paraffin-embedded sections were prepared as previously described (42). For immunohistochemistry, the first antibodies used were anti-cleaved caspase-3 (Cell Signaling Technology) and anti-mac3 (BD Biosciences, San Jose, Calif.). For TUNEL analysis, the In Situ apoptosis detection kit (Chemicon, Temecula, Calif.) was used along with the manufacturer's protocol with some optimal modifications on the treatment periods.
Targeted ST2−/− mice and their WT littermates were employed for the experiments. TAC was produced as described previously (49, 50) on 8-10 week old mice. All operative procedures were performed by a single operator with over 20 years rodent cardiac surgery experience who was blinded to genotype and the randomized treatment assignment. Following the procedure, each mouse received daily i.p. injection of recombinant rat IL-33 (2 μg) or vehicle from the day after TAC operation until the day of harvest.
Echocardiographic acquisition and analysis were performed by an echocardiographer blinded to treatment group. […] All images were taken at a heart rate greater than 400 beats per minute to minimize effects of anesthesia, using a Sonos-4500 (Philips) and a 15-MHz transducer. Three consecutive cardiac cycles were averaged. Left ventricular mass was calculated by the M-mode method (51). Left ventricular fractional shortening was calculated as (EDD−ESD)/EDD×100%, where EDD is end-diastolic dimension and ESD is end-systolic dimension.
A planimetry image analysis program was used by an investigator blinded to treatment group to quantitate the 30 high power field regions randomly selected in each slice with Hematoxylin-eosin stain (for cross-sectional area) or Sirius-red stain (for fibrotic area). Cross sectional area of cardiomyocytes was measured as described previously (52). Fibrotic area was calculated as (red area/total area)×100%. The scores from all slices were averaged to calculate their respective values.

mouse ST2 = biological target: T1, mouse ST2 (Mus musculus, UniProt P14719); test: Pull-down assay of recombinant IL-33 with mouse ST2-Fc protein; assay type: binding
T1 construct: purchased R&D
T1 sequence (P14719 27-337 isoform P14719-2 limits assumed): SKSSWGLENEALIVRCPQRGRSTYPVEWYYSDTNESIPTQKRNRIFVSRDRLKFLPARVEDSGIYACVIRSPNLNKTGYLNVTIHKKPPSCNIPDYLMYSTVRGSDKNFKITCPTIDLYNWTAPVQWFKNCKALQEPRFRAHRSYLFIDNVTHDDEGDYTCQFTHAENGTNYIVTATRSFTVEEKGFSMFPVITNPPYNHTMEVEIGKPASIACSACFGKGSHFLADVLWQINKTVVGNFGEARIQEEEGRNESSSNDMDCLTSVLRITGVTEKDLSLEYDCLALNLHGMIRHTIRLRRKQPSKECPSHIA
Excerpt: The GenBank™ accession number for rat IL-33 is BC081993. The rat IL-33 cDNA was subcloned into the expression vector pTrcHis-TOPO (Invitrogen), starting with amino acid 109 of the full-length protein with an N-terminal His tag. After sequencing, One-shot TOP10 bacteria (Invitrogen) were transformed and expression was induced with Isopropyl β-D-1-thiogalactopyranoside (Sigma). Four hours after induction, bacteria were harvested, and the pellet was resuspended in B-PER Bacterial Protein Extraction Reagent (Pierce) with EDTA-free protease inhibitor cocktail (Sigma). The lysate was purified with Ni-chelating affinity chromatography using a Ni-NTA Purification system (Invitrogen). Briefly, Ni NTA beads were washed twice after batch binding with 40 ml of 20 mM Imidazole, 300 mM NaCl, 50 mM potassium phosphate, pH 8.0. IL-33 was eluted with 10 ml of 250 mM Imidazole, 300 mM NaCl, 50 mM potassium phosphate, pH 8.0. IL-33 protein was further concentrated, dialyzed and purified by high-performance liquid chromatography (BioLogic DuoFlow System, Bio-Rad, Hercules, Calif.) using HiPrep sephacryl size exclusion column (GE Healthcare Bioscience, Piscataway, N.J.) with buffer containing 150 mM NaCl, 50 mM potassium phosphate, pH 7.2. Endotoxin level (<0.03 EU/μg protein) was determined by Limulus Amebocyte Lysate PYROGENT Ultra (Cambrex) as previously described (12). […]

cardiac fibroblasts = test: Cardiac fibroblast proliferation; assay type: cell-based, rat
Experimental: A 3-(4,5-dimethylthiazol-2-yl)-5-(3-carboxymethoxyphenyl)-2-(4-sulfophenyl)-2H-tetrazolium salt (MTS) assay was performed with CellTiter 96 AQueous One Solution Cell Proliferation Assay kit (Promega, Madison, Wis.). Actual cell number in each group was also counted manually after exclusion of dead cells by Trypan blue staining. Cell cycle of cardiac fibroblasts was analyzed as previously described (9). Briefly, cardiac fibroblasts were seeded at a density of 1.5×10^5 cells per 60 mm dishes and serum-starved for 24 hrs. After treatment, cells were trypsinized, fixed in 80% ethanol at −20° C. and labeled with 50 ug/ml propidium iodide (Sigma) with 50 ug/ml RNaseA (Sigma). Then propidium iodide fluorescence was analyzed by flow cytometer (CYTOMICS FC500, Beckman Coulter, Fullerton, Calif.). Total population was initially gated to remove cell debris, and 1×10^4 cells were assessed for each DNA histogram using CXP software (Beckman Coulter).

[2] = ST2−/− mice, 4 weeks after operation
[3] = WT mice surviving 8 weeks after TAC
[4] = WT mice, IL-33 2 μg/day i.p. for 4 weeks

B1: IL-33: recombinant mature rat IL-33, starting with amino acid 109 of the full-length protein, N-terminal His tag (GenBank BC081993) (protein)
chain: SIQGTSLLTESCALSTYNDQSVSFVLENGCYVINVEDCGKNQEKDKVLLRYYESSFPAQSGDGVDGKKLMVNMSPIKDTDIWLNANDKDYSVELQKGDVSPPDQAFFVLHKKSSDFVSFECKNLPGTYIGVKDNQLALVEENDESCNNIMFKLSKM
modifications: left off: small tags and cut ends
percentage of TUNEL positive nuclei in myocardium ([1]; 4 weeks after operation): not changed; also recorded: did not affect TUNEL positivity | Gross Heart/Body Weight after TAC ([1]; ST2−/− mice): not in ST2−/− mice | NF-κB nuclear binding activity in left ventricular myocardium ([1]; ST2−/− mice, 1 week after operation): not in ST2−/− mice; also recorded: modest increase in NF-κB binding | hypertrophy by echocardiography after TAC [1, 2]: not in ST2−/− littermates | increased left ventricular dilation and reduced fractional shortening after TAC [1, 2]: not reversed | induction of ANP and BNP gene expression after TAC ([1]; ST2−/− mice): not in ST2−/− mice | Gross Heart/Body Weight after TAC ([1]; WT mice): antihypertrophic effect of IL-33 in WT mice | survival after TAC ([1]; WT mice): significantly improved survival in WT mice after TAC; also recorded: improved pathological changes and survival in WT mice | fractional shortening (echocardiography) [1, 3]: increased fractional shortening | left ventricular wall thickness (echocardiography) [1, 3]: reduced wall thickness | NF-κB nuclear binding activity in left ventricular myocardium after TAC ([1]; WT mice, 1 week after operation): inhibited NF-κB induction only in WT mice; also recorded: reversed these changes only in WT mice | macrophage infiltration in myocardium after TAC ([1]; WT mice, 1 week, co-treatment with IL-33): decreased by co-treatment with IL-33; also recorded: reduced macrophage infiltration after TAC only in WT mice | hypertrophy by echocardiography after TAC ([1]; WT mice, 4 weeks after operation): reduced hypertrophy only in WT mice | cardiac fibrosis (Sirius-red) after TAC [1, 4]: reduced cardiac fibrosis; also recorded: significantly improved these changes in WT mice | cardiomyocyte hypertrophy (cross-sectional area) after TAC [1, 4]: reduced cardiac fibrosis and cardiomyocyte hypertrophy; also recorded: significantly improved these changes in WT mice | induction of ANP and BNP gene expression after TAC ([1]; WT mice): markedly attenuated induction of both genes in WT; also recorded: effectively reversed the induction of these hypertrophic genes in WT mice with TAC; also recorded: reversed these changes only in WT mice | macrophage infiltration in myocardium, IL-33 alone ([1]; WT or ST2−/− mice without TAC, 1 week of treatment): did not significantly increase macrophage infiltration; also recorded: not observed; also recorded: did not induce macrophage infiltration | echocardiographic parameters under non-stress conditions ([1]; no TAC): no significant change | binding to mouse ST2 (pulldown with ST2-Fc chimera protein) (mouse ST2): bound to the mouse ST2 protein | binding to mouse ST2 (pulldown with ST2-Fc chimera protein) (mouse ST2; listed as recombinant IL-33): exhibits specific binding to mouse ST2 | cardiac fibroblast proliferation, IL-33 alone (cardiac fibroblasts): can induce cardiac fibroblast proliferation | cardiac fibroblast proliferation induced by angiotensin II (cardiac fibroblasts; co-treatment with IL-33): antagonizes cardiac fibroblast proliferation induced by angiotensin II; also recorded: antagonizes the proliferation induced by angiotensin II
